Results on 7 molecules are retold here after article PMC11103505, “AXL-specific single domain antibodies show diagnostic potential and anti-tumor activity in Acute Myeloid Leukemia” (Theranostics, 2024).

Broadly, the Kd is the constant that tells how readily two partners part at equilibrium. The term IC50 denotes the concentration that gives 50% inhibition.

First the molecules themselves.
B4: recombinant mouse AXL protein (receptor, UniProt Q00993 19-445, looked up)
chain: AHKDTQTEAGSPFVGNPGNITGARGLTGTLRCELQVQGEPPEVVWLRDGQILELADNTQTQVPLGEDWQDEWKVVSQLRISALQLSDAGEYQCMVHLEGRTFVSQPGFVGLEGLPYFLEEPEDKAVPANTPFNLSCQAQGPPEPVTLLWLQDAVPLAPVTGHSSQHSLQTPGLNKTSSFSCEAHNAKGVTTSRTATITVLPQRPHHLHVVSRQPTELEVAWTPGLSGIYPLTHCNLQAVLSDDGVGIWLGKSDPPEDPLTLQVSVPPHQLRLEKLLPHTPYHIRISCSSSQGPSPWTHWLPVETTEGVPLGPPENVSAMRNGSQVLVRWQEPRVPLQGTLLGYRLAYRGQDTPEVLMDIGLTREVTLELRGDRPVANLTVSVTAYTSAGDGPWSLPVPLEPWRPGQGQPLHHLVSEPPPRAFSWPWW
notes: AXL receptor tyrosine kinase, mouse; recombinant protein R&D Systems #854-AX; also called mouse Axl antigen; recombinant mouse antigen; source: bought: R&D Systems (#854-AX)

Assay [1] deals with B4. In words: SPR; Biacore-T200; recombinant AXL protein immobilised on CM5 chip by amine coupling (EDC/NHS); sdAbs injected at ten concentrations from 1.9 to 500 nM; 25°C; HBS (20 mM HEPES pH 7.4, 150 mM NaCl, 3.4 mM EDTA, 0.005% Tween 20); 10 µL/min; 1:1 binding model. The note with it: both partners purified. On the technique in general: Surface plasmon resonance follows binding to a sensor surface in real time, without labels.

In assay [2] the target is T1, recombinant human AXL protein (Homo sapiens, UniProt P30530).
T1 construct: AXL receptor tyrosine kinase, human; recombinant protein R&D Systems #154-AL; also called hAXL; AXL - Homo sapiens; source: bought: R&D Systems (#154-AL)
T1 sequence (P30530 26-451): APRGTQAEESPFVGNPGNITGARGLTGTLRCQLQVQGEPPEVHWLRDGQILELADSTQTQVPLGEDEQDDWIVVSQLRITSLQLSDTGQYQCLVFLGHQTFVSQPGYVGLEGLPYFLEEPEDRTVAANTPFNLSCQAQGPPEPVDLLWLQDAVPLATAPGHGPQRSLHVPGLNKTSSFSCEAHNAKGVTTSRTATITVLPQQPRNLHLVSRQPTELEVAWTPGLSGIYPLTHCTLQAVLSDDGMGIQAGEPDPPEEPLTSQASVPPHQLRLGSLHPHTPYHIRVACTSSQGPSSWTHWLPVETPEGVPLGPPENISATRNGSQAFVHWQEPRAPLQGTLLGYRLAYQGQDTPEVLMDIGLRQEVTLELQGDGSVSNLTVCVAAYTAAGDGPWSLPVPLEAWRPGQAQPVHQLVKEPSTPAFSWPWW
The description is as above. Particulars: both partners purified.

The next assay deals with T2, [111In]In-DTPA-sdAb20-Fc (alpaca (Vicugna pacos)).
T2 construct: as the VHH of Dm1; the His6 tag of sdAb20 was replaced with the mIgG2a-Fc region; about 80 kDa; also called [111In] anti-AXL sdAb20-Fc; 111In-labeled sdAb20-Fc; source: DTPA-conjugated and 111In-labelled, purified (SEC, NAP-5); not shown: Fc (mouse IgG2a), C-terminal, kept
In words: ELISA; radio-ELISA: recombinant mouse AXL coated on Lockwell C8 Maxisorp plates; serial dilution of [111In]In-DTPA-sdAb-Fc in PBS + 1% FBS; bound radioactivity by gamma counter; specific binding = total minus non-specific binding. Particulars: both partners purified.

In assay [3] the target is T3, AXL on AXL-overexpressing murine C1498 AML cells (Mus musculus, UniProt Q00993).
T3 construct: receptor tyrosine kinase AXL overexpressed in murine C1498 cells by lentiviral transduction; also called AXL^high C1498; source: C1498 cells, lentivirally transduced and positively selected, on cells
Nature of the assay: flow cytometry on cells; sdAb20 or sdAb20-Fc on AXL-expressing human and murine cancer cell lines, compared with the irrelevant control R3B23 or R3B23-Fc; read-out MFI. Particulars: one partner purified. Background: In flow cytometry, cells or beads pass a laser one at a time.

In assay [4] the target is T4, recombinant human AXL protein (human, UniProt P30530).
T4 construct: receptor tyrosine kinase AXL, human, recombinant protein from R&D Systems; also called hAXL; source: bought: R&D Systems
T4 sequence (P30530 26-451): as above
In words: SPR; competition assay for blocking of hAXL and hGAS6; which partner was immobilised is not shown. Particulars: both partners purified.

The target in assay [5] is T5, recombinant mouse AXL protein (Mus musculus, UniProt Q00993).
T5 construct: receptor tyrosine kinase AXL, mouse, recombinant protein from R&D Systems; also called recombinant mouse antigen; source: bought: R&D Systems
In words: SPR; Biacore T200; recombinant AXL immobilised on CM5 chip by amine coupling; seven serial dilutions of sdAb flowed over; 25 °C; HBS (20 mM HEPES pH 7.4, 150 mM NaCl, 3.4 mM EDTA, 0.005% Tween 20); 1:1 binding model. Particulars: both partners purified.

B1: anti-AXL single domain antibody sdAb25 (VHH)
VHH: QVQLQESGGGLVQPGGSLRLSCVASGSIFSIYAMGWYRQAPGKQRELVAGISSGGSTNYADSVKGRFTISRDNAKNTVYLQMNSLKPEDTAVYYCNYDLVEAVTGEYDYWGQGTQVTVSS
notes: source: E. coli WK6, periplasmic expression, purified (IMAC, SEC)
As for B1, the binding result in assay [1] and in assay [2] was “binds” each time.

B2: anti-AXL single domain antibody sdAb12 (VHH)
VHH: QVQLQESGGGLVKPGGSLRLSCVASGSIFSIYAMGWYRQAPGKQRELVAGISSGGSTNYADSVKGRFTISRDNAKNTVYLQMNSLKPEDTAVYYCNYDLVEAVTGEYDYWGQGTQVTVSS
notes: as for B1
In the case of B2, the binding result in assay [1] and in assay [2] was “binds” in each case.

B3: anti-AXL single domain antibody sdAb4 (VHH)
VHH: QVQLQESGGGLVQPGGSLRLSCVASGSIFSIYAMGWYRQAPGKQRELVAGISSGGSTNYADSVKGRFTISRDNAKNTVYLQMNSLKPEDTAVYYCNYDLVKAVTGEYDYWGQGTQVTVSS
notes: as for B1
B3: the binding result in assay [1] and in assay [2] was “binds” throughout.
With B4, in assay [111In]In-DTPA-sdAb20-Fc, the Kd amounted to 11.9 nM.

B5: anti-AXL single domain antibody sdAb19 (VHH)
VHH: QVQLQESGGGMVQPGGSLRLSCAASGFTFTSYDMTWLRQTPGKGPEWVSTISTGGLRTYYGNSVKGRFIISRDNTKNTLYLQMNSLKPEDTALYYCARGPFTVADPRRGQGTQVTVSS
notes: as for B1
As to B5, in assay [1], the binding result is “binds”.

B6: anti-AXL single domain antibody sdAb20 (VHH)
VHH: QVQLQESGGGLVRPGGSLRLSCAASGFTFTSYDMTWLRQTPGKGPEWVSTISTGGLRTYYGNSVKGRFIISRDNTKNTLYLQMNSLKPEDTALYYCARGPFTVADPRRGQGTQVTVSS
notes: re-cloned into pHEN6 (C-terminal His6 tag), monomeric format; source: E. coli WK6, periplasmic expression, purified (IMAC, SEC)
B6: the binding result in assay [1] was “binds”.

B7: anti-AXL single domain antibody sdAb20 (VHH)
VHH: QVQLQESGGGLVRPGGSLRLSCAASGFTFTSYDMTWLRQTPGKGPEWVSTISTGGLRTYYGNSVKGRFIISRDNTKNTLYLQMNSLKPEDTALYYCARGPFTVADPRRGQGTQVTVSS
notes: alpaca-derived; Re-cloned into pHEN6, which encodes the C-terminal His6 tag; also called lead compound; monovalent sdAb20; source: E. coli WK6, periplasmic expression, purified (IMAC, SEC); not shown: His6, C-terminal, kept
On to B7, for which the binding result in assay [3] and in assay [5] was “binds” in each case. The half-inhibitory concentration (IC50) in assay [4] is 119 nM.
